Assay results: patent US20170260272A1 (Novartis, published 2017)
Where a chain is given by its changes, count along the chain named.

B1: MOR020144 (antibody, human IgG1, lambda, L234A L235A, V domains shown)
VH: QVQLLESGGGLVQPGGSLRLSCAASGFTFSDYALHWVRQAPGKGLEWVSVISYSGGYTYYADSVKGRFTISRDNSKNTLYLQMNSLRAEDTAVYYCARSPGLTSYHDSWGQGTLVTVSS
VL: DIVLTQPPSVSGAPGQRVTISCSGSSSNIGSNYVSWYQQLPGTAPKLLIHSNSHRPSGVPDRFSGSKSGTSASLAITGLQAEDEADYYCQSWDYESERVVFGGGTKLTVLG
notes: also called MOR20144
B2: MOR020151 (antibody, human IgG1, lambda, L234A L235A, V domains shown)
VH: QVQLVESGGGLVKPGGSLRLSCAASGFTFSSYALSWVRQAPGKGLEWVGRIKSKTMGGTSDYAAPVKGRFTISRDDSKNTLYLQMNSLKTEDTAVYYCARDFWADHYYYFDYWGQGTLVTVSS
VL: DIALTQPASVSGSPGQSITISCTGTSSDVGYINYVNWYQQHPGKAPKLMIYEVSNRPSGVSNRFSGSKSGNTASLTISGLQAEDEADYYCASWDWYDNVVFGGGTKLTVLG
notes: also called MOR20151
B3: MOR021469 (antibody, V domains shown)
VH: B1 VH with V50A, S54Q, Y57F, T58I, Y59F
VL: B1 VL
notes: IgG (human IgG1f LALA); parent MOR20144 with the printed HCDR2 stretch exchanged
B4: MOR021470 (antibody, V domains shown)
VH: B1 VH with S54A, G56A, Y57F
VL: B1 VL
notes: as for B3
B5: MOR021454 (antibody, V domains shown)
VH: B2 VH with K52R, S53H, K54Y, T55K, M56W, S60T, D61E
VL: B2 VL
notes: IgG (human IgG1f LALA); parent MOR20151 with the printed HCDR2 stretch exchanged
B6: MOR021456 (antibody, V domains shown)
VH: B2 VH with K52R, S53Y, K54W, T55P, M56D, G58Y, S60T, D61H, P65S
VL: B2 VL
notes: as for B5
B7: MOR021457 (antibody, V domains shown)
VH: B2 VH with I51T, K52R, S53M, K54W, M56V, G58Y, S60T, D61H, P65S
VL: B2 VL
notes: as for B5
B8: MOR021434 (antibody, V domains shown)
VH: QVQLVQSGAEVKKPGSSVKVSCKASGGTFSDYAISWVRQAPGQGLEWMGGIVPILGAANYAQKFQGRVTITADESTSTAYMELSSLRSEDTAVYYCARDSSTSYYYYFDYWGQGTLVTVSS
VL: DIQMTQSPSSLSASVGDRVTITCRASQDINSWLAWYQQKPGKAPKLLIYQASNLQSGVPSRFSGSGSGTDFTLTISSLQPEDFATYYCQQIDHTPFTFGQGTKVEIKR
notes: IgG (human IgG1f LALA); parent MOR20159 with the printed HCDR2 stretch exchanged
B9: MOR021436 (antibody, V domains shown)
VH: B8 VH with L55V, A57T
VL: B8 VL with I91M, D92Q, H93T, T94S, P95L, F96I
notes: IgG (human IgG1f LALA); parent MOR20159 with the printed LCDR3 stretch exchanged
B10: MOR021437 (antibody, V domains shown)
VH: B8 VH with L55V, A57T
VL: B8 VL with I91M, D92K, H93I, T94S, P95L, F96I
notes: as for B9
B11: MOR021438 (antibody, V domains shown)
VH: B8 VH with L55V, A57T
VL: B8 VL with I91M, D92H, H93R, T94H, F96I
notes: as for B9
B12: MOR021439 (antibody, V domains shown)
VH: B8 VH with L55V, A57T
VL: B8 VL with I91M, D92H, H93R, T94F, F96M
notes: as for B9
B13: MOR021440 (antibody, V domains shown)
VH: B8 VH with L55V, A57T
VL: B8 VL with I91M, D92Q, H93E, T94S, P95L, F96L
notes: as for B9
B14: MOR021441 (antibody, V domains shown)
VH: B8 VH with L55V, A57T
VL: B8 VL with I91M, D92K, H93T, T94F, F96I
notes: as for B9
B15: MOR021442 (antibody, V domains shown)
VH: B8 VH with L55V, A57T
VL: B8 VL with I91M, D92H, H93R, T94L, F96V
notes: as for B9
B16: MOR021449 (antibody, V domains shown)
VH: QVQLVQSGAEVKKPGSSVKVSCKASGGTFSDYAISWVRQAPGQGLEWMGGIQPGFAGAWYAQKFQGRVTITADESTSTAYMELSSLRSEDTAVYYCAREPSPLYGPYSDYVMDPWGQGTLVTVSS
VL: B2 VL with I32F, Y34F, N36S, E52D, W93Y, D94G, Y96D, D97S, N98S, V99W
notes: IgG (human IgG1f LALA); parent MOR20052 with the printed HCDR2 stretch exchanged
B17: MOR021443 (antibody, V domains shown)
VH: QVQLVQSGAEVKKPGESLKISCKGSGYSFTNYWIAWVRQMPGKGLEWMGRIFPGKSETSYSPSFQGQVTISADKSISTAYLQWSSLKASDTAMYYCARGKRGATHPTQYEGWEVYGFDPWGQGTLVTVSS
VL: DIELTQPPSVSVSPGQTASITCSGDALGGKYASWYQQKPGQAPVLVIYDDNKRPSGIPERFSGSNSGNTATLTISGTQAEDEADYYCQSWAFYSGVFGGGTKLTVLG
notes: IgG (human IgG1f LALA); parent MOR20133 with the printed HCDR2 stretch exchanged
B18: MOR021444 (antibody, V domains shown)
VH: B17 VH with F52E, G54L, K55S, E57T, S59E
VL: B17 VL
notes: as for B17
B19: MOR021445 (antibody, V domains shown)
VH: B17 VH with R50A, F52R, G54E, K55W, S59K
VL: B17 VL
notes: as for B17
B20: MOR021553 (antibody, V domains shown)
VH: QVQLLESGGGLVQSGGSLRLSCAASGFTFRSGAAMHWVRQAPGKGLEWVSSIEYFGSATLYADSVKGRFTISRDNSKNTLYLQMNSLRAEDTAVYYCARNFKYAMDYWGQGTLVTVSS
VL: DIALTQPASVSGSPGQSITISCTGTSSDVGSINYVSWYQQHPGKAPKMIYAVSYRPSGVSNRFSGSKSGNTASLTISGLQAEDEADYYCQVWDWRSDSRVFGGGTKLTVLG
notes: IgG (human IgG1f LALA); parent MOR20148 with the printed HCDR2 stretch exchanged
B21: MOR021451 (antibody, V domains shown)
VH: QVQLVQSGAEVKKPGSSVKVSCKASGGTFSSYAISWVRQAPGQGLEWMGRIVPGFVYTSYAQKFQGRVTITADESTSTAYMELSSLRSEDTAVYYCARDPLYRSDYYYHWFDFWGQGTLVTVSS
VL: DIALTQPASVSGSPGQSITISCTGTSSDVGNFNYVSWYQQHPGKAPKLMIYGVNNRPSGVSNRFSGSKSGNTASLTISGLQAEDEADYYCAAYGWALDEVVFGGGTKLTVLG
notes: IgG (human IgG1f LALA); parent MOR20152 with the printed HCDR2 stretch exchanged
B22: MOR021448 (antibody, V domains shown)
VH: QVQLVQSGAEVKKPGSSVKVSCKASGGTFSDYAISWVRQAPGQGLEWMGRVIRPYYGWTEYAQKFQGRVTITADESTSTAYMELSSLRSEDTAVYYCAREPSPLYGPYSDYVMDPWGQGTLVTVSS
VL: B2 VL with I32F, Y34F, N36S, E52D, W93Y, D94G, Y96D, D97S, N98S, V99W
notes: as for B16
B23: MOR021455 (antibody, V domains shown)
VH: QVQLVQSGAEVKKPGSSVKVSCKASGGTFSSYAISWVRQAPGQGLEWMGRIIPQWAGTPEYAQKFQGRVTITADESTSTAYMELSSLRSEDTAVYYCARDPLYRSDYYYHWFDFWGQGTLVTVSS
VL: B21 VL
notes: as for B21

What follows are binders tested against T1, APP-Avi-soluble human LOX-1(61-273) (human, UniProt P78380 61-273) (assay: competition ELISA: oxLDL binding to plate-bound biotinylated human sLOX-1).
Description: NeutrAvidin 384 well plates were coated with 2.5 μg/ml biotinylated LOX-1 diluted in PBS. After blocking with 25% Block Ace (AbD Serotec, Cat#BUF029) in PBS, purified Fabs or IgGs diluted in PBS/1% BSA were added. Subsequently OxLDL (copper-sulfate oxidized LDL, Kalen Biomedical #770202) or MDA-LDL (Academy Biomedical, #20P-UMD-L102) ligand diluted in PBS/1% BSA were allowed to bind to coated LOX-1. Secondary antibody (HRP conjugated sheep anti ApoB IgG; The Binding Site) diluted 1:1,000 in PBS/1% BSA was added followed by addition of TMB substrate (Thermo Scientific). After 10 minutes 1M H2SO4 was added and absorbance was determined at 450 nm. During early screenings, Fab fragments were also tested in this oxLDL binding assay using Fab-containing crude E. coli lysates.
The ability of LOX-1 antibodies to inhibit oxLDL binding to LOX-1 protein was determined using the method described in Example 4. In addition to “high binding OxLDL” from Kalen Biomedical (catalog number 770212-7), which is generated by copper sulfate mediated oxidation of LDL, two other forms of modified LDL were tested in this assay: malondialdehyde modified LDL (Academy Bio-Medical Co. catalog number 20P-MD-L105) and hypochlorite modified LDL. Hypochlorite modified LDL was prepared according to the following procedure. Human LDL (Kalen Biomedical catalog number 770200-4) was diluted with PBS to a final concentration of 0.25 mg/mL. Sodium hypochlorite (NaOCI, JT Baker catalog number 9416-01) was then added to 0.1 mM final concentration. The solution was incubated at room temperate for 4 hours, then quenched by adding L-methionine to a final concentration of reaction by adding 5 μl of 100 mM Mehionine per 200 μl total volume.

B1 and B2 are within 1.5-fold of each other in IC50: 5000 pM for the first, 7000 pM for the second.

These binders were tested against T1, APP-Avi-soluble human LOX-1(61-273) (assay: SET, IgG vs soluble human LOX-1).
Description: Affinity determination for anti-LOX-1 IgGs using Solution Equilibrium Titration (SET) was basically performed as described in the literature (Friguet et al., 1985 J Immunol Methods 77: 305-319). The assays were performed in a 96-well polypropylene plate (Thermo Scientific, Catalog no. AB-1127) using a constant concentration of LOX-1 antibody mixed with different concentrations of non-biotinylated human or cynomolgus monkey LOX-1 protein and incubated at 22° C. for 14 hours with constant shaking (300 rpm).
On a pre-blocked MSD plate (Meso Scale Discovery, catalog no. L21SA) biotinylated human or cynomolgus monkey soluble LOX-1 protein was immobilized and washed afterwards. The equilibrium binding reactions were then applied to the MSD plate with immobilized LOX-1 and incubated for 30 min. The unbound material was removed by washing the plate, and the captured antibody was detected by adding Sulfo-tagged goat anti-human IgG (Meso Scale Discovery, catalog no. R3AJ-1). After incubation and washing 1×MSD read buffer T(Meso Scale Discovery, catalog no. R92TC-2) was added and the plate was developed using a Sector Imager 6000 (Meso Scale Discovery). The data were transferred to Excel for analysis and plotted using GraphPad Prism v5. The KD values were determined by fitting the data to the following equation: […]

Compared with B1, B3 is 5-fold higher in Kd: 0.2 pM for the first, 1 pM for the second. The first binds more tightly here.

Going from B4 to B2, the Kd rises from 0.5 pM to 270 pM (540-fold).

First: B5
Second: B6
The Kd of the first is 2.9-fold lower: 0.7 pM for the first, 2 pM for the second.

First: B7
Second: B8
The Kd of the first is 7-fold lower: 1 pM for the first, 7 pM for the second. The first binds more tightly here.

B9 and B10 are the same in Kd: 4 pM for the first, 4 pM for the second.

Compared with B11, B12 is 1.5-fold higher in Kd: 2 pM for the first, 3 pM for the second. The first binds more tightly here.

Compared with B13, B14 is 2-fold lower in Kd: 6 pM for the first, 3 pM for the second.

First: B15
Second: B16
The Kd of the first is 13-fold higher: 4 pM for the first, 0.3 pM for the second.

First: B17
Second: B18
The Kd of the first is 2.1-fold higher: 75 pM for the first, 35 pM for the second. The second binds more tightly here.

Going from B19 to B20, the Kd falls from 30 pM to 6 pM (5-fold).

First: B21
Second: B22
The Kd of the first is 3-fold lower: 0.1 pM for the first, 0.3 pM for the second.

For B23, the Kd was 0.3 pM.
